Measurements taken from patent publication US20240218070A1 (MERUS N V, published 2024).

T1: human FAP (huFAP) expressed on cells (human, UniProt Q12884 1-760)
T1 construct: also called WI-38 cells
T1 sequence: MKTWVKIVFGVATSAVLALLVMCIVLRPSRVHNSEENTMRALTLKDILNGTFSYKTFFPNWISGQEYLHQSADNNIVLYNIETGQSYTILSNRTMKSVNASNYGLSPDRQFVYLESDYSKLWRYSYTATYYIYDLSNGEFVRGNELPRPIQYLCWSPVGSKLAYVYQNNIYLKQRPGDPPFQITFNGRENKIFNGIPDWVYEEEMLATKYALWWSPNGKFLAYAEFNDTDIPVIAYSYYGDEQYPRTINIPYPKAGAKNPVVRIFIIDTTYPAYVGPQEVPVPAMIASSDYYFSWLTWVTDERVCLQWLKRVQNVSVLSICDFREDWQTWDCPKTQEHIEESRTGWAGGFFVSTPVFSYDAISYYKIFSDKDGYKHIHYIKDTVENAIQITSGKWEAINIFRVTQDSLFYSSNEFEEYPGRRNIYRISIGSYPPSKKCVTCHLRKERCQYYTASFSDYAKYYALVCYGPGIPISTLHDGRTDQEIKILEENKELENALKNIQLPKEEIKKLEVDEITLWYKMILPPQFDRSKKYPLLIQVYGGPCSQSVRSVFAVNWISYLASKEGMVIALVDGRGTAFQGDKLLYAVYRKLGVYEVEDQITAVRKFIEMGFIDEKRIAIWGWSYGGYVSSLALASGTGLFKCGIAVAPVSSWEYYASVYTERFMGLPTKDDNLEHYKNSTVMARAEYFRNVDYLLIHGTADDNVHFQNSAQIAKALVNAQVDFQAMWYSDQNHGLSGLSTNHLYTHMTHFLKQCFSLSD

B1: anti-human FAP bivalent monospecific IgG comprising heavy chain variable region SEQ ID NO: 15 (antibody, V domains shown)
VH: QLQLQESGPGLVKPSETLSLTCTVSGGSISSSSYFWAWIRQPPGKGLEFIGNIYYSGSTYYNPSLKSRVTISVDTSKNQFSLKLSSVTAADTAVYYCARPSYYGSGNYYFAFWGQGTLVTVSS
VL: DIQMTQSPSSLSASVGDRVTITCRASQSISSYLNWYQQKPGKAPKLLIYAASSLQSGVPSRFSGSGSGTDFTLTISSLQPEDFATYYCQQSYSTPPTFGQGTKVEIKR
notes: IgG1 format, common light chain VK1-39/JK1
B2: anti-human FAP bivalent monospecific IgG comprising heavy chain variable region SEQ ID NO: 69 (antibody, V domains shown)
VH: EVQLVETGGGLIQPGGSLRLSCAASGFTVSSNYMSWVRQAPGKGLEWVSVIYSGGSTYYADSVKGRFTISRDNSKNTLYLQMNSLRAEDTAVYYCARGPTDAYPYLDYLWGQGTLVTVSS
VL: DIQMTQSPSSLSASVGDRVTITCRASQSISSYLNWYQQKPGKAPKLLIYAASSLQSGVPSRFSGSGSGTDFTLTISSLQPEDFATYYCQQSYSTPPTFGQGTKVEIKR
notes: IgG1 format, common light chain VK1-39/JK1; also called human/mouse cross-reactive FAP IgG

Molecular target: T1, human FAP (huFAP) expressed on cells
Assay: FACS titration (10 ug/ml to 3.16 ng/ml) on WI-38 cells
Method: The human anti-FAP panel was tested on WI-38 cells (endogenously expressing huFAP) and binding was measured by FACS.
The target cells were harvested, counted, and centrifuged for 5 min at 300 g at 4° C. Cells were then resuspended in FACS buffer at a concentration of 1×10⁶ cells/ml and transferred (200,000 cells/well) to a U-bottom 96-well FACS plate (BD, cat. #353910). Cells were washed by adding 200 μl PBS and centrifuged for 3 min at 300 g at 4 °C. Cells were then centrifuged for 3 min at 300 g at 4° C. and supernatant was discarded. Antibodies were diluted in an 8 steps, semi-log dilution series ranging from 10 ug/ml to 3.16 ng/ml in FACS buffer (50 μ/well), mixed, and incubated for 30 min at 2-8° C. in the dark. A titration of the sibrotuzumab analog was included as positive control and used to normalize data. The negative control TT antibody was included as negative control. Cells were washed by adding 150 μl FACS buffer and centrifuged for 3 min at 300 g at 4° C. Supernatant was discarded, and cells were washed again by adding 200 μl FACS buffer to the plate. Cells were then centrifuged for 3 min at 300 g at 4° C. and afterwards the supernatant was discarded. […] Fluorescence intensity of the cells was then measured on the iQue VBR (Intellicyt).

Binder | binding result
B1 | binds
B2 | binds
